Results taken from publication PMC8109789, “Phe-Gly motifs drive fibrillization of TDP-43’s prion-like domain condensates” (PLoS Biology, 2021).

B1: TDP-43 prion-like domain, TDP-43(267–414) (domain or fragment, UniProt Q13148 267-414, looked up)
chain: NRQLERSGRFGGNPGGFGNQGGFGNSRGGGAGLGNNQGSNMGGGMNFGAFSINPAMMAAAQAALQSSWGMMGMLASQQNQSGPSGNNQNQGNMQREPNQAFGSGNNSYSGSNSGAAIGWGSASNAGSGSGFNGGFGSSMDSKSSGWGM
notes: Uniformly 15N or 15N/13C labelled for NMR; Fibril seeds of this molecule (from the SSNMR rotor) are the target in the cross-seeding assay; also called TDP-43 PrLD; PrLD of TDP-43; source: E. coli BL21 Star (DE3), inclusion bodies, purified (Ni-NTA in 8 M urea, PD-10 desalting at pH 4)

Tests used:
[1] = molecular target: the molecule itself; test: solution NMR, 1H-15N HSQC peak intensities over time; 55 and 110 μM TDP-43 PrLD, pH 4.0, 298 K, 1 mM CD3COOD in 85/15 H2O/D2O, no salt or RNA; first spectrum within 1 hour, second after approximately 20 hours; self-association into aggregates and droplets
[2] = molecular target: B1; test: cross-seeding followed by ThT fluorescence; 5 μM of each protein variant in 1 mM CD3COOD with 40 μM ThT, 2% (0.12 μM) seeds of the wild-type fibrils studied by SSNMR, 25°C, excitation 450 nm, emission 480 nm; details: both partners purified

| binding result [2] | Binder | binding result [1] |
| --- | --- | --- |
| – | B1 | binds |
| binds | TDP-43 PrLD variant F313A+F316A (domain or fragment, UniProt Q13148 267-414, looked up, TDP-43 prion-like domain, residues 267-414, with the 2 central Phe residues changed to Ala; The text prints the variant once as F312A+F316A and otherwise as F313A+F316A; also called double mutant; F312A+F316A (as printed once); source: desalted from the 8 M urea-containing solution with a PD-10 column) NRQLERSGRFGGNPGGFGNQGGFGNSRGGGAGLGNNQGSNMGGGMNAGAASINPAMMAAAQAALQSSWGMMGMLASQQNQSGPSGNNQNQGNMQREPNQAFGSGNNSYSGSNSGAAIGWGSASNAGSGSGFNGGFGSSMDSKSSGWGM | – |
